In test [1] the target is Human CD137 (TNR9_Human) (human, UniProt Q07011 24-255). Put plainly: cell-based or functional assay.
In test [2] the target is Human CD40 (human, UniProt P25942 21-277). Put plainly: cell-based or functional assay.
Chain of Human CD40 (P25942 21-277): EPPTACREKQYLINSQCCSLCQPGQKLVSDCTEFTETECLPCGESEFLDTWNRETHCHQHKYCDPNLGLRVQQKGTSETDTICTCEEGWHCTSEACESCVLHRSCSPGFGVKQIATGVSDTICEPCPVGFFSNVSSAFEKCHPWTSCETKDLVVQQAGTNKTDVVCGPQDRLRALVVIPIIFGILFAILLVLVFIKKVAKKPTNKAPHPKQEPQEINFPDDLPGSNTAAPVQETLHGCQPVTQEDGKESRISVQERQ

Chain of Human CD137 (TNR9_Human) (Q07011 24-255): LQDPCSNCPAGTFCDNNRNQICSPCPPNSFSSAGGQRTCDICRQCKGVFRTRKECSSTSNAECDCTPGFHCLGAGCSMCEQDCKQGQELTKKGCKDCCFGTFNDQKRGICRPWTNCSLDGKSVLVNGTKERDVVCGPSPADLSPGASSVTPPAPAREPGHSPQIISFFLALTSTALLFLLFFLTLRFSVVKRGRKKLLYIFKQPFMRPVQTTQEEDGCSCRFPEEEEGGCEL

B1: CD40-001-FEALxCD137-010-FEAR (bispecific antibody, human IgG1, kappa)
heavy 1: EVQLQQSGPDLVKPGASVKISCKTSGYTFTEYIMHWVKQSHGKSLEWIGGIIPNNGGTSYNQKFKDKATMTVDKSSSTGYMELRSLTSEDSAVYYCTRREVYGRNYYALDYWGQGTLVTVSSASTKGPSVFPLAPSSKSTSGGTAALGCLVKDYFPEPVTVSWNSGALTSGVHTFPAVLQSSGLYSLSSVVTVPSSSLGTQTYICNVNHKPSNTKVDKRVEPKSCDKTHTCPPCPAPEFEGGPSVFLFPPKPKDTLMISRTPEVTCVVVAVSHEDPEVKFNWYVDGVEVHNAKTKPREEQYNSTYRVVSVLTVLHQDWLNGKEYKCKVSNKALPAPIEKTISKAKGQPREPQVYTLPPSREEMTKNQVSLTCLVKGFYPSDIAVEWESNGQPENNYKTTPPVLDSDGSFLLYSKLTVDKSRWQQGNVFSCSVMHEALHNHYTQKSLSLSPGK
light 1: DIQMTQTTSSLSASLGDRVTITCSASQGINNYLNWYQQKPDGTVKLLIYYTSSLHSGVPSRFSGSGSGTDYSLTISNLEPEDIATYYCQQYSNLPYTFGGGTKLEIKRTVAAPSVFIFPPSDEQLKSGTASVVCLLNNFYPREAKVQWKVDNALQSGNSQESVTEQDSKDSTYSLSSTLTLSKADYEKHKVYACEVTHQGLSSPVTKSFNRGEC
heavy 2: QSVEESGGRLVTPGTPLTLTCTVSGFSLSTYAMIWVRQAPGKGLEWIGVVYDNGYISHATWVKGRFTISKTSTTVGLEITSPTTEDTATYFCARSADGSWSTYFNLWGQGTLVTVSSASTKGPSVFPLAPSSKSTSGGTAALGCLVKDYFPEPVTVSWNSGALTSGVHTFPAVLQSSGLYSLSSVVTVPSSSLGTQTYICNVNHKPSNTKVDKRVEPKSCDKTHTCPPCPAPEFEGGPSVFLFPPKPKDTLMISRTPEVTCVVVAVSHEDPEVKFNWYVDGVEVHNAKTKPREEQYNSTYRVVSVLTVLHQDWLNGKEYKCKVSNKALPAPIEKTISKAKGQPREPQVYTLPPSREEMTKNQVSLTCLVKGFYPSDIAVEWESNGQPENNYKTTPPVLDSDGSFFLYSRLTVDKSRWQQGNVFSCSVMHEALHNHYTQKSLSLSPGK
light 2: DIVMTQTPASVEAAVGGTVTIKCQASESISNYLAWYQQKPGQPPKLLIYKASTLASGVSSRFKGSGSGTEFTLTISDLESADAATYYCQTNYCCSSSDNGFAFGGGTEVVVKRTVAAPSVFIFPPSDEQLKSGTASVVCLLNNFYPREAKVQWKVDNALQSGNSQESVTEQDSKDSTYSLSSTLTLSKADYEKHKVYACEVTHQGLSSPVTKSFNRGEC
For B1, in test [1], the “luciferase activity (RLU) of NF-KB/293/GFP-Luc cells transduced with CD137, incubated with K562_CD40” value is approximately 100 ng/mL. Further, the “luciferase activity (RLU) of NF-KB/293/GFP-Luc cells transduced with CD40, incubated with K562_CD137” value in test [2] is approximately 100 ng/mL.

The values are drawn from patent US20210317225A1 (Genmab, published 2021).
